In paper PMC4380140 (Journal of biomolecular screening, 2012):

B1: ectodomain ephrinB1 (ed-ephrinB1), amino acids 26-236 of mouse ephrinB1 extracellular domain (domain or fragment, UniProt P52795 26-236, looked up)
chain: TPLAKNLEPVSWSSLNPKFLSGKGLVIYPKIGDKLDIICPRAEAGRPYEYYKLYLVRPEQAAACSTVLDPNVLVTCNKPHQEIRFTIKFQEFSPNYMGLEFKKYHDYYITSTSNGSLEGLENREGGVCRTRTMKIVMKVGQDPNAVTPEQLTTSRPSKESDNTVKTATQAPGRGSQGDSDGKHETVNQEEKSGPGAGGGGSGDSDSFFNSK
B2: ectodomain ephrinB3 (ed-ephrinB3), amino acids 28-227 of mouse ephrinB3 extracellular domain (domain or fragment, UniProt O35393 28-227, looked up)
chain: LSLEPVYWNSANKRFQAEGGYVLYPQIGDRLDLLCPRARPPGPHSSPSYEFYKLYLVEGAQGRRCEAPPAPNLLLTCDRPDLDLRFTIKFQEYSPNLWGHEFRSHHDYYIIATSDGTREGLESLQGGVCLTRGMKVLLRVGQSPRGGAVPRKPVSEMPMERDRGAAHSAEPGRDTIPGDPSSNATSRGAEGPLPPPSMPA

What was measured:
SEC = molecular target: the molecule itself; assay: SEC
dynamic light scattering = molecular target: the molecule itself; assay: dynamic light scattering

Protein	binding result (SEC)	stoichiometry N (dynamic light scattering)
B1	binds	–
B2	–	104 monomers per particle
